Values joined by “and” are separate entries in the source; they are usually repeats but may differ in a detail not shown here. Equal values may be shown once.
Conditions: Vibrio harveyi; pH 7; 25 °C; Urea; CD; NaH2PO4/K2HPO4 50 mM; transition: 4; whole UniProt chain shown

B1: Alkanal monooxygenase alpha chain wild type, P07740 (protein)
chain: MKFGNFLLTYQPPELSQTEVMKRLVNLGKASEGCGFDTVWLLEHHFTEFGLLGNPYVAAAHLLGATETLNVGTAAIVLPTAHPVRQAEDVNLLDQMSKGRFRFGICRGLYDKDFRVFGTDMDNSRALMDCWYDLMKEGFNEGYIAADNEHIKFPKIQLNPSAYTQGGAPVYVVAESASTTEWAAERGLPMILSWIINTHEKKAQLDLYNEVATEHGYDVTKIDHCLSYITSVDHDSNRAKDICRNFLGHWYDSYVNATKIFDDSDQTKGYDFNKGQWRDFVLKGHKDTNRRIDYSYEINPVGTPEECIAIIQQDIDATGIDNICCGFEANGSEEEIIASMKLFQSDVMPYLKEKQ
unfolding free energy: 4.5 kcal/mol and 2.8 kcal/mol
